From article PMC8809517, “Cofactor-independent RNA editing by a synthetic S-type PPR protein” come the findings set out here.

Holding throughout (test): high-throughput RNA pulldown from lysate on Ni-NTA beads; HRP: 50 mM Tris pH 8, 150 mM NaCl, 1 mM beta-mercaptoethanol, 50 ug/ml BSA, 3 ug/ml yeast RNA, 0.5% heparin; ITC and FP: Tris pH 8, 200 mM KCl, 5% glycerol; MST: 50 mM Tris pH 8, 200 mM NaCl, 1 mM DTT, BSA, heparin, 0.05% Tween 20
Details in all cases: tags: N-terminal His-eGFP

Data set [1] addresses T1, GFP-9S library array, motif 4 ND N98W;D124R (synthetic construct, N98W;D124R).
T1 chain: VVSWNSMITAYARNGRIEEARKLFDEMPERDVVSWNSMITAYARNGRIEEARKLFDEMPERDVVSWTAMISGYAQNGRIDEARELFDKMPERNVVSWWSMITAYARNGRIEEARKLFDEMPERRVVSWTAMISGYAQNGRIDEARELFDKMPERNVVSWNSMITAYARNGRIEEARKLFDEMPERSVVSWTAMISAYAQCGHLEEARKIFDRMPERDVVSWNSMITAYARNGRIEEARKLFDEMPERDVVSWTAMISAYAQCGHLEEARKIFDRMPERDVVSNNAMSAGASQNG

Data set [2] addresses T2, GFP-9S library array, motif 4 ND N98I;D124N (synthetic construct, N98I;D124N).
T2 chain: T1 chain with W98I, R124N

The target in data set [3] is T3, GFP-9S library array, motif 4 ND N98F;D124P (synthetic construct, N98F;D124P).
T3 chain: T1 chain with W98F, R124P

Data set [4] addresses T4, GFP-9S library array, motif 4 ND N98H;D124N (synthetic construct, N98H;D124N).
T4 chain: T1 chain with W98H, R124N

For data set [5], the target named is T5, GFP-9S library array, motif 4 ND N98G;D124H (synthetic construct, N98G;D124H).
T5 chain: T1 chain with W98G, R124H

Substitutions are numbered along the chain they refer to.

On to AUUAAACGUGA (ssRNA) [IR-rpoA-A], for which the equilibrium dissociation constant (Kd) – broadly, the free concentration of one partner at which half of the binding sites on the other are occupied at equilibrium, for simple one-to-one binding – was found to be 206 nM in data set [1] (label: 5' IRDye 800CW); 150 nM in data set [2] (label: 5' IRDye 800CW); 393 nM in data set [3] (label: 5' IRDye 800CW); 189 nM in data set [4] (label: 5' IRDye 800CW); 114 nM in data set [5] (label: 5' IRDye 800CW).
As to AUUAUACGUGA (ssRNA) [IR-rpoA-U], the Kd in data set [1] (label: 5' IRDye 800CW) was 317 nM; in data set [2] (label: 5' IRDye 800CW), 18.2 nM; in data set [3] (label: 5' IRDye 800CW), 196 nM; in data set [4] (label: 5' IRDye 800CW) it was 30.8 nM; in data set [5] (label: 5' IRDye 800CW), 136 nM.
Turning to AUUACACGUGA (ssRNA) [Cy5-rpoA], the Kd in data set [1] (label: 5' Cy5) came out at 113 nM; in data set [2] (label: 5' Cy5), 96.4 nM; in data set [3] (label: 5' Cy5) it was 140 nM; in data set [4] (label: 5' Cy5), 36.1 nM; in data set [5] (label: 5' Cy5), 91.1 nM.
The like results for AUUAGACGUGA (ssRNA) [Cy5-rpoA-G] were, in that order, 90.3 nM, 117 nM, 181 nM, 149 nM and 108 nM.
